# From patent US6641809
# How the values were obtained:
# CD28 receptor (human) [1] = target: CD28 receptor (human) (UniProt P10747); test: cell-based or functional assay
# CD28 receptor (human) [2] = target: CD28 receptor (human) (UniProt P10747); test: adhesion of B7-transfected COS cells to CD28+ CHO cells, EDTA omitted
# CD28 receptor (human) [3] = target: CD28 receptor (human) (UniProt P10747); test: adhesion of T51 cells to CD28+ CHO cells, mAb 9.3 at 10 µg/ml plus EDTA
# CD28 receptor (human) [4] = target: CD28 receptor (human) (UniProt P10747); test: inhibition of adhesion of PM lymphoblastoid cells to CD28+ CHO monolayers
# CD28 receptor (human) [5] = target: CD28 receptor (human) (UniProt P10747); test: adhesion of T51 cells to CD28+ CHO cells, mAb 9.3 at 10 µg/ml without EDTA
# B7 antigen (human) [6] = target: B7 antigen (human) (UniProt P33681); test: cell-based or functional assay
# B7 antigen (human), sequence (P33681 35-288): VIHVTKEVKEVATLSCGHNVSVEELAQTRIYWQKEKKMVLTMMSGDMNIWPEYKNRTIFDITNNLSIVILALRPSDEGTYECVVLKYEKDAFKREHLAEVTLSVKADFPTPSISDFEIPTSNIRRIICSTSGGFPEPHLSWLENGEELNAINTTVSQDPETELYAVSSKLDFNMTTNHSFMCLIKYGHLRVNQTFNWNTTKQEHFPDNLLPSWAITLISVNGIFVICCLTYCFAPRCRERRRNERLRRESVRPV
# B7 antigen (human) [7] = target: B7 antigen (human) (UniProt P33681); test: flow cytometry, 5E1 cells; (- cold) minus (+ cold)
# B7 antigen (human) [8] = target: B7 antigen (human) (UniProt P33681); test: flow cytometry, T51 cells; (- cold) minus (+ cold)
# B7 antigen (human) [9] = target: B7 antigen (human) (UniProt P33681); test: flow cytometry, Raji cells; (- cold) minus (+ cold)
# B7 antigen (human) [10] = target: B7 antigen (human) (UniProt P33681); test: flow cytometry, Daudi cells; (- cold) minus (+ cold)
# B7 antigen (human) [11] = target: B7 antigen (human) (UniProt P33681); test: flow cytometry, Jijoye cells; (- cold) minus (+ cold)
# B7 antigen (human) [12] = target: B7 antigen (human) (UniProt P33681); test: flow cytometry, 1A2 cells preincubated with unlabeled BB-1
# B7 antigen (human) [13] = target: B7 antigen (human) (UniProt P33681); test: flow cytometry, 5E1 cells preincubated with unlabeled BB-1
# B7 antigen (human) [14] = target: B7 antigen (human) (UniProt P33681); test: flow cytometry, CEM cells preincubated with unlabeled BB-1
# B7 antigen (human) [15] = target: B7 antigen (human) (UniProt P33681); test: flow cytometry, T51 cells preincubated with unlabeled BB-1
# B7 antigen (human) [16] = target: B7 antigen (human) (UniProt P33681); test: flow cytometry, HL60 cells preincubated with unlabeled BB-1
# B7 antigen (human) [17] = target: B7 antigen (human) (UniProt P33681); test: flow cytometry, HSB2 cells preincubated with unlabeled BB-1
# B7 antigen (human) [18] = target: B7 antigen (human) (UniProt P33681); test: flow cytometry, Raji cells preincubated with unlabeled BB-1
# B7 antigen (human) [19] = target: B7 antigen (human) (UniProt P33681); test: flow cytometry, Daudi cells preincubated with unlabeled BB-1
# B7 antigen (human) [20] = target: B7 antigen (human) (UniProt P33681); test: flow cytometry, THP-1 cells preincubated with unlabeled BB-1
# B7 antigen (human) [21] = target: B7 antigen (human) (UniProt P33681); test: flow cytometry, Jijoye cells preincubated with unlabeled BB-1
# B7 antigen (human) [22] = target: B7 antigen (human) (UniProt P33681); test: adhesion of T51 cells to CD28+ CHO cells, screen of a mAb panel
# B7 antigen (human) [23] = target: B7 antigen (human) (UniProt P33681); test: flow cytometry, direct staining of Raji cells (BL, positive for CD28 adhesion)
# B7 antigen (human) [24] = target: B7 antigen (human) (UniProt P33681); test: adhesion of Jijoye cells to CD28+ CHO cells in 10 mM EDTA, BB-1 below 1 µg/ml
# B7 antigen (human) [25] = target: B7 antigen (human) (UniProt P33681); test: flow cytometry, direct staining of Daudi cells (BL, positive for CD28 adhesion)
# B7 antigen (human) [26] = target: B7 antigen (human) (UniProt P33681); test: flow cytometry, direct staining of 5E1 cells (B-LCL, positive for CD28 adhesion)
# B7 antigen (human) [27] = target: B7 antigen (human) (UniProt P33681); test: flow cytometry, direct staining of Jijoye cells (BL, positive for CD28 adhesion)
# B7 antigen (human) [28] = target: B7 antigen (human) (UniProt P33681); test: flow cytometry, direct staining of T51 cells (B-LCL, positive for CD28 adhesion)
# B7 antigen (human) [29] = target: B7 antigen (human) (UniProt P33681); test: flow cytometry, Namalwa cells (negative for CD28 adhesion); (- cold) minus (+ cold)
# B7 antigen (human) [30] = target: B7 antigen (human) (UniProt P33681); test: flow cytometry, direct staining of HL60 cells (AML, negative for CD28 adhesion; presence of B7 not shown)
# B7 antigen (human) [31] = target: B7 antigen (human) (UniProt P33681); test: flow cytometry, direct staining of 1A2 cells (B-LCL, negative for CD28 adhesion; presence of B7 not shown)
# B7 antigen (human) [32] = target: B7 antigen (human) (UniProt P33681); test: flow cytometry, direct staining of THP-1 cells (AML, negative for CD28 adhesion; presence of B7 not shown)
# B7 antigen (human) [33] = target: B7 antigen (human) (UniProt P33681); test: flow cytometry, direct staining of HSB2 cells (T-ALL, negative for CD28 adhesion; presence of B7 not shown)
# B7 antigen (human) [34] = target: B7 antigen (human) (UniProt P33681); test: flow cytometry, direct staining of Namalwa cells (BL, negative for CD28 adhesion; presence of B7 not shown)
substance,measurement,setting,value
mAb 9.3 (Fab fragments),"[3H]-T incorporation, PHA blasts stimulated with B7+ CHO (40:1), with 9.3 Fab at 10 µg/ml",CD28 receptor (human) [1],132000 cpm
Monoclonal antibody (mAb) 9.3 (anti-CD28),"[3H]-T incorporation, PBL, + Anti-CD3, mAb 9.3 (immob.), Exp. 1",CD28 receptor (human) [1],137000 cpm
same,"[3H]-T incorporation, PBL, + Anti-CD3, mAb 9.3 (soln.), Exp. 1",CD28 receptor (human) [1],156000 cpm
same,"[3H]-T incorporation, PBL, + Anti-CD3, mAb 9.3 (soln.), Exp. 2",CD28 receptor (human) [1],75800 cpm
same,"[3H]-T incorporation, PBL, - Anti-CD3, mAb 9.3 (immob.), Exp. 1",CD28 receptor (human) [1],100 cpm
same,"[3H]-T incorporation, PBL, - Anti-CD3, mAb 9.3 (soln.), Exp. 1",CD28 receptor (human) [1],300 cpm
same,"[3H]-T incorporation, PBL, - Anti-CD3, mAb 9.3 (soln.), Exp. 2",CD28 receptor (human) [1],400 cpm
same,percent of adhesion blocked,CD28 receptor (human) [2],40%
same,percent reduction of adhesion,CD28 receptor (human) [3],93%
same,IC50,CD28 receptor (human) [4],0.01 µM
same,percent reduction of adhesion,CD28 receptor (human) [5],62%
B7Ig fusion protein (from UniProt P33681 35-215; P01857 99-330) (Fc fusion),"[3H]-T incorporation, PBL, + Anti-CD3, B7Ig (immob.), Exp. 1",CD28 receptor (human) [1],174000 cpm
same,"[3H]-T incorporation, PBL, - Anti-CD3, B7Ig (immob.), Exp. 1",CD28 receptor (human) [1],100 cpm
mAb BB-1 (anti-B7) (antibody),"[3H]-T incorporation, PHA blasts stimulated with B7+ CHO (40:1), with BB-1 at 10 µg/ml",B7 antigen (human) [6],98300 cpm
same,"SPECIFIC BINDING (mean fluorescence, linear units)",B7 antigen (human) [7],10.6 linear units
same,"SPECIFIC BINDING (mean fluorescence, linear units)",B7 antigen (human) [8],13.4 linear units
same,"SPECIFIC BINDING (mean fluorescence, linear units)",B7 antigen (human) [9],4.3 linear units
same,"SPECIFIC BINDING (mean fluorescence, linear units)",B7 antigen (human) [10],3.6 linear units
same,"SPECIFIC BINDING (mean fluorescence, linear units)",B7 antigen (human) [11],15 linear units
same,"mean fluorescence (linear units), + COLD",B7 antigen (human) [12],4.3 linear units
same,"mean fluorescence (linear units), + COLD",B7 antigen (human) [13],2.4 linear units
same,"mean fluorescence (linear units), + COLD",B7 antigen (human) [14],1.9 linear units
same,"mean fluorescence (linear units), + COLD",B7 antigen (human) [15],3 linear units
same,"mean fluorescence (linear units), + COLD",B7 antigen (human) [16],3.1 linear units
same,"mean fluorescence (linear units), + COLD",B7 antigen (human) [17],2.3 linear units
same,"mean fluorescence (linear units), + COLD",B7 antigen (human) [18],2.8 linear units
same,"mean fluorescence (linear units), + COLD",B7 antigen (human) [19],2.8 linear units
same,"mean fluorescence (linear units), + COLD",B7 antigen (human) [20],3 linear units
same,"mean fluorescence (linear units), + COLD",B7 antigen (human) [21],2.8 linear units
same,percent of CD28-mediated adhesion blocked,B7 antigen (human) [22],> 30%
same,"mean fluorescence (linear units), - COLD",B7 antigen (human) [23],7.1 linear units
same,percent of adhesion blocked,B7 antigen (human) [24],60%
same,"mean fluorescence (linear units), - COLD",B7 antigen (human) [25],6.4 linear units
same,"mean fluorescence (linear units), - COLD",B7 antigen (human) [26],13 linear units
same,"mean fluorescence (linear units), - COLD",B7 antigen (human) [27],17.8 linear units
same,"mean fluorescence (linear units), - COLD",B7 antigen (human) [28],16.4 linear units
same,"SPECIFIC BINDING (mean fluorescence, linear units)",B7 antigen (human) [29],1.6 linear units
same,"mean fluorescence (linear units), - COLD",B7 antigen (human) [30],3.1 linear units
same,"mean fluorescence (linear units), - COLD",B7 antigen (human) [31],4.5 linear units
same,"mean fluorescence (linear units), - COLD",B7 antigen (human) [32],3.1 linear units
same,"mean fluorescence (linear units), - COLD",B7 antigen (human) [33],2.3 linear units
same,"mean fluorescence (linear units), - COLD",B7 antigen (human) [34],3.8 linear units
